Source: the supplement of paper PMC10065799, “High-throughput profiling of sequence recognition by tyrosine kinases and SH2 domains using bacterial peptide display” (eLife, 2023)

Key:
[1] = system: AncSZ; assay: phosphorylation enrichment, bacterial display (enrichment ratio); higher = better substrate or ligand; peptides without Tyr show the background
[2] = molecular target: EPHB1 (UniProt P54762); assay: as above
[3] = molecular target: EPHB2 (UniProt P29323); assay: as above
[4] = molecular target: FGFR1 (UniProt P11362); assay: as above
[5] = molecular target: FGFR3 (UniProt P22607); assay: as above
[6] = system: Fer (mouse); assay: as above
[7] = molecular target: Fes (UniProt P07332); assay: as above
[8] = molecular target: Fyn (UniProt P06241); assay: as above
[9] = molecular target: Hck (UniProt P08631); assay: as above
[10] = molecular target: Jak2 (UniProt O60674); assay: as above
[11] = molecular target: MERTK (UniProt Q12866); assay: as above
[12] = system: c-Abl (mouse); assay: as above
[13] = system: c-Src; assay: as above
[14] = molecular target: Grb2 SH2 (UniProt P62993); assay: SH2 binding enrichment of the phosphorylated peptide, bacterial display (enrichment ratio); higher = better substrate or ligand; peptides without Tyr show the background
[15] = molecular target: SHP2-C SH2; assay: as above
[16] = molecular target: c-Src SH2; assay: as above
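For SH2 binding enrichment of the phosphorylated peptide, bacterial display in this document: peptide library displayed on the E. coli surface as eCPX fusions, selected cells deep-sequenced, score is each peptide's frequency after selection divided by its frequency in the input.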
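For phosphorylation enrichment, bacterial display in this document: 11-residue human phosphosite peptides and single-mutation variants displayed on the E. coli surface, counted by deep sequencing, each peptide's frequency after selection divided by its frequency in the unselected input library; frequency after pTyr selection over input frequency; kinase dosed for 20-30% of maximal phosphorylation in three min.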

Sequence of Hck (P08631 whole entry, looked up): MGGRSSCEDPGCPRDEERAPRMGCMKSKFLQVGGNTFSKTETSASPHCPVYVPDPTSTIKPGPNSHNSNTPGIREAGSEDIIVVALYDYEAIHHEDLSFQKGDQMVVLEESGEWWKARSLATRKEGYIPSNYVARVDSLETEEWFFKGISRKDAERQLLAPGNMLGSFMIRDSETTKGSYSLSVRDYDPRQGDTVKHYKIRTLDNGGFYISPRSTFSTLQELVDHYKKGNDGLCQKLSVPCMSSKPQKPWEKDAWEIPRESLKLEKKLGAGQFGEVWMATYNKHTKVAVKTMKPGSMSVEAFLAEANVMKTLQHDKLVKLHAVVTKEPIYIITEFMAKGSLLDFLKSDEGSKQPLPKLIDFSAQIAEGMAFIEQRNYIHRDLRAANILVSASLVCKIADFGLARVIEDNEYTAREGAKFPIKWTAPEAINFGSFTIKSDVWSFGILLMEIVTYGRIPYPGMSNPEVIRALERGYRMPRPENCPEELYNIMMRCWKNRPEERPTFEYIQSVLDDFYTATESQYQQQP
Sequence of FGFR3 (P22607 whole entry, looked up): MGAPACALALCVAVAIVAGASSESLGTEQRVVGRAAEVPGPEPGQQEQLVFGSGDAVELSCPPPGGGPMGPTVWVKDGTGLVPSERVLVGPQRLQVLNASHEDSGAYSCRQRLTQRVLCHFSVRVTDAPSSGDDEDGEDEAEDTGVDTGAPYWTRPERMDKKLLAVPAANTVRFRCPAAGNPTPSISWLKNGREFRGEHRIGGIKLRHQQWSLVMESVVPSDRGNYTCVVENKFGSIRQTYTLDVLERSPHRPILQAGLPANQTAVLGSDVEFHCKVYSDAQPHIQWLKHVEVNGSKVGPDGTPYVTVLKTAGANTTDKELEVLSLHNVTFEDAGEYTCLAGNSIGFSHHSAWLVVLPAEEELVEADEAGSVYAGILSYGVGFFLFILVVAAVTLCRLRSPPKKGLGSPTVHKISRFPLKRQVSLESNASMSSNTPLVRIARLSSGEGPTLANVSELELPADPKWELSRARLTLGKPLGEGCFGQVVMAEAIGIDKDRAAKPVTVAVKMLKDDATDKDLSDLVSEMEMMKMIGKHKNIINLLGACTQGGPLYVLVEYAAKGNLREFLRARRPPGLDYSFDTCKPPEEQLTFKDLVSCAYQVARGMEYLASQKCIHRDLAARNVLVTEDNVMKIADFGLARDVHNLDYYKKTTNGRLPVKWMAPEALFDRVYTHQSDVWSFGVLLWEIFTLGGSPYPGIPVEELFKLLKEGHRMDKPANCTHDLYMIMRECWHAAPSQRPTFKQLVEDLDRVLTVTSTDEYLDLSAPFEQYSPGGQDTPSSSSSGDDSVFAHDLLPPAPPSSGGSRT
Sequence of FGFR1 (P11362 whole entry, looked up): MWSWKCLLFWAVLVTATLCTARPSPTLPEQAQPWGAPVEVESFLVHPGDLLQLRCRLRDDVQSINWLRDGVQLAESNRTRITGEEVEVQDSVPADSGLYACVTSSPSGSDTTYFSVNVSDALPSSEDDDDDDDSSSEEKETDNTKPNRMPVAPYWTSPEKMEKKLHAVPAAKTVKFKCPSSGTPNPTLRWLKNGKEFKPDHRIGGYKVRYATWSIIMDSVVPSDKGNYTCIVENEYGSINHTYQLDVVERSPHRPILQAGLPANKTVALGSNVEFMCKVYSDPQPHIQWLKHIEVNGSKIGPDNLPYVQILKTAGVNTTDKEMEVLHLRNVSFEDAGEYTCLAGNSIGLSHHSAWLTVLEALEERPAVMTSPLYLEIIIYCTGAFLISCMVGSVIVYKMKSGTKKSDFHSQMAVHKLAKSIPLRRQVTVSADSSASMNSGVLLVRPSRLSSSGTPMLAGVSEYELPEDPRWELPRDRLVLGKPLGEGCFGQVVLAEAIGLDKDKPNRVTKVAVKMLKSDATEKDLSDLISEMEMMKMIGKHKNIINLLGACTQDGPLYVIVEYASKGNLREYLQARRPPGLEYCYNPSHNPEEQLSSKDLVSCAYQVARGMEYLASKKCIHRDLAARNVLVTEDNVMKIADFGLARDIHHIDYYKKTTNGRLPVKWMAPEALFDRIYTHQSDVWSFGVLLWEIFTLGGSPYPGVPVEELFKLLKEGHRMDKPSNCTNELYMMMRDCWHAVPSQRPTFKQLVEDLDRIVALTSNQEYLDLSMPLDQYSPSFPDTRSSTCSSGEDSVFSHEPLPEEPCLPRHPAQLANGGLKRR
Sequence of Fyn (P06241 whole entry, looked up): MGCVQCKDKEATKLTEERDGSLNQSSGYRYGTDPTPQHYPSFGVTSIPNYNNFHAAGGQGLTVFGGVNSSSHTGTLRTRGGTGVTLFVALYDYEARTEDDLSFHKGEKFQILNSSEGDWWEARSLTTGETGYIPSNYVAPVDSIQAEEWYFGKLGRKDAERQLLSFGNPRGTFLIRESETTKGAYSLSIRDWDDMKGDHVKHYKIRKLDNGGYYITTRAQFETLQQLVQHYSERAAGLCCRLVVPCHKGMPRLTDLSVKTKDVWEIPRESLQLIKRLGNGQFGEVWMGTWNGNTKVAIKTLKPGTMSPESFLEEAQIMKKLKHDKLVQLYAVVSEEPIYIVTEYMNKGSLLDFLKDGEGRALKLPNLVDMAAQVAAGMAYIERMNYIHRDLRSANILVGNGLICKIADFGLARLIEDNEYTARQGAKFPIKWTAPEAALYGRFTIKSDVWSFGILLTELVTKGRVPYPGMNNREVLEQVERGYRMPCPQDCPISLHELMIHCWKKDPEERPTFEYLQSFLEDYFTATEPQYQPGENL
Sequence of Grb2 SH2 (P62993 whole entry, looked up): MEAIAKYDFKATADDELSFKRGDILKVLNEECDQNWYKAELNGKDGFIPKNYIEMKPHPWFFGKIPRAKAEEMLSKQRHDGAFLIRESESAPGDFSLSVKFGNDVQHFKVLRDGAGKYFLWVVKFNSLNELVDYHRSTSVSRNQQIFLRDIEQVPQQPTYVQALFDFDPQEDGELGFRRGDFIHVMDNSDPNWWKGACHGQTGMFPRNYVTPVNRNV
Sequence of Fes (P07332 whole entry, looked up): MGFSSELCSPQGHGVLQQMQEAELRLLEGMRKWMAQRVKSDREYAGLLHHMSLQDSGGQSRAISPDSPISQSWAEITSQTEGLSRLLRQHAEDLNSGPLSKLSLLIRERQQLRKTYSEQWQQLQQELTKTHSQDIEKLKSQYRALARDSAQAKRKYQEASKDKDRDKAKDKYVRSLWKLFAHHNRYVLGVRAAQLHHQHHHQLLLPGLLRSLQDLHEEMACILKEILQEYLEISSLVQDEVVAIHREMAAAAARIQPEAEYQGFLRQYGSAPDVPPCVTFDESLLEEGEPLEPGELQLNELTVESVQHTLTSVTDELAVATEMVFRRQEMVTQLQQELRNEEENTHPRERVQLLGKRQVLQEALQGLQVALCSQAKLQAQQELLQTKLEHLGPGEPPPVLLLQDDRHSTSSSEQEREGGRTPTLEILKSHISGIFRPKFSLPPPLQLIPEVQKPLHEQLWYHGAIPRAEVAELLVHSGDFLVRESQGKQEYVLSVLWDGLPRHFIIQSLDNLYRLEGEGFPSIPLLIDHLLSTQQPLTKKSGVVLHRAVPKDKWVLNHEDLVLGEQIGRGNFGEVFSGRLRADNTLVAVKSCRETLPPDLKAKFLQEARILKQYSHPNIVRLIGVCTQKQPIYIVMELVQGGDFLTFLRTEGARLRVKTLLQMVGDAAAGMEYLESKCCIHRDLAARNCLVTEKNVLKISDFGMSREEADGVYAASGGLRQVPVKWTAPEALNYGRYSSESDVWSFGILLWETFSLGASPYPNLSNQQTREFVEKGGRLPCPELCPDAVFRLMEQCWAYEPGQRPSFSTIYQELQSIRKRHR
Sequence of Jak2 (O60674 whole entry, looked up): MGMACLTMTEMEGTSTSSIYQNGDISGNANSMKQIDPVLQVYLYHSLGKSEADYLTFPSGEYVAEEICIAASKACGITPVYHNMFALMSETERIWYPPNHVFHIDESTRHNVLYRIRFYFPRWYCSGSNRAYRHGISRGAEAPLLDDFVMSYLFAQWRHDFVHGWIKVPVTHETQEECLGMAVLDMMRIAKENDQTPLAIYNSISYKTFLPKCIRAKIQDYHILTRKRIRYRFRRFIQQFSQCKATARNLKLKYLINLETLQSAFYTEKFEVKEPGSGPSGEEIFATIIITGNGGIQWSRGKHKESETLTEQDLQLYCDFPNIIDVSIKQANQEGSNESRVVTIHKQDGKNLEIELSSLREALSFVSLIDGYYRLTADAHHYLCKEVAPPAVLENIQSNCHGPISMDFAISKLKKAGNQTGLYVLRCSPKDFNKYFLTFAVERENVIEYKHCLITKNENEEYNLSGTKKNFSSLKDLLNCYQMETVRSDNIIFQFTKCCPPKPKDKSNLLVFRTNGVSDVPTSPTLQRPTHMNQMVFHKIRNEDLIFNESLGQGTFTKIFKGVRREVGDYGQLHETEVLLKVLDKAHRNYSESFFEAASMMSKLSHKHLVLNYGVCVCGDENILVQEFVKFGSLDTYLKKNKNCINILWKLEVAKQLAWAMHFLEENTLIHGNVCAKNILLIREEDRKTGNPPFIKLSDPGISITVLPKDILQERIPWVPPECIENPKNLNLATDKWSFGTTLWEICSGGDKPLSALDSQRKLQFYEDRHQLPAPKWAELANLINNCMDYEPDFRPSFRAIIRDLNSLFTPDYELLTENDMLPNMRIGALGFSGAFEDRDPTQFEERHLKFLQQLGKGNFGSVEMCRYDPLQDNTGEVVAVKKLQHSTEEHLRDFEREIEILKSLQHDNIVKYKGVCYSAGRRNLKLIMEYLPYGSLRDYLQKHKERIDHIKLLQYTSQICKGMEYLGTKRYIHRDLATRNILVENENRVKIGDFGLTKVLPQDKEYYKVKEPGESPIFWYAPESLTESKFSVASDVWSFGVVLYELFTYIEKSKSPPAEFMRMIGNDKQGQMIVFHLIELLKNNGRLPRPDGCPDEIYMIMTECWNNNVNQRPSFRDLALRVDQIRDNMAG

Sequence | phosphorylation enrichment [1] | phosphorylation enrichment [2] | phosphorylation enrichment [3] | phosphorylation enrichment [4] | phosphorylation enrichment [5] | phosphorylation enrichment [6] | phosphorylation enrichment [7] | phosphorylation enrichment [8] | phosphorylation enrichment [9] | phosphorylation enrichment [10] | phosphorylation enrichment [11] | phosphorylation enrichment [12] | phosphorylation enrichment [13] | SH2 binding enrichment [14] | SH2 binding enrichment [15] | SH2 binding enrichment [16]
DTNIAYCLHPR [POMT1_Y581_W582C] | 0.831 | 0.549 | 0.532 | 0.471 | 0.691 | 0.505 | 1.06 | 0.541 | 0.431 | 0.754 | 0.695 | 0.753 | 0.568 | 0.712 | 0.744 | 0.609
DTYDPYLDVAL [USP36_Y268] | 1.55 | 0.805 | 0.776 | 0.742 | 0.853 | 0.661 | 1.32 | 1.19 | 0.846 | 1.1 | 0.412 | 0.859 | 1.43 | 0.751 | 0.559 | 0.509
DVCKNYAKAKD [ALB_Y343_E345K] | 0.71 | 0.469 | 0.535 | 0.409 | 0.498 | 0.473 | 0.627 | 0.428 | 0.439 | 0.607 | 0.51 | 0.633 | 0.4 | 1.03 | 0.956 | 0.559
DVFVSYDCGKS [SORL1_Y139_Y141C_YF] | 0.969 | 0.611 | 0.518 | 0.485 | 0.61 | 0.521 | 1.04 | 0.495 | 0.592 | 1.05 | 0.371 | 0.74 | 0.449 | 0.964 | 0.592 | 0.528
DVSKEYGHLLP [HRC_Y99] | 0.852 | 0.743 | 0.608 | 0.551 | 0.833 | 0.656 | 1.09 | 0.624 | 0.801 | 0.687 | 0.59 | 0.747 | 0.836 | 0.76 | 0.581 | 0.425
DWLRRYLENGK [HLA-A_Y195_E190D] | 1.1 | 0.723 | 0.946 | 0.728 | 0.708 | 1.02 | 1.04 | 0.642 | 0.705 | 0.986 | 0.864 | 0.584 | 0.617 | 0.654 | 0.366 | 0.211
DYGSGYPNDPK [RNASEH2A_Y210] | 0.86 | 0.482 | 0.625 | 0.548 | 0.643 | 0.538 | 1.01 | 0.474 | 0.574 | 0.93 | 0.569 | 0.778 | 0.575 | 0.699 | 0.589 | 0.319
DYSLKYATDIP [APC_Y1183] | 1.35 | 0.78 | 0.565 | 0.6 | 0.913 | 0.573 | 1.29 | 0.582 | 0.6 | 1.25 | 0.5 | 0.736 | 0.571 | 0.704 | 0.536 | 0.443
EADRKYEEVAC [TPM3_Y163_R168C] | 1.17 | 0.622 | 0.609 | 0.598 | 0.777 | 0.61 | 1.41 | 0.574 | 0.681 | 1.04 | 0.545 | 0.862 | 0.53 | 1.12 | 0.925 | 21.8
EADRKYEEVAR [TPM3_Y163] | 1.29 | 0.764 | 0.742 | 0.637 | 0.895 | 0.712 | 1.46 | 0.58 | 0.663 | 1.19 | 0.598 | 1.08 | 0.625 | 1.08 | 0.794 | 18
EAEPYYRSLRD [NPHS1_Y1139] | 0.929 | 0.487 | 0.594 | 0.505 | 0.585 | 0.428 | 0.911 | 0.479 | 0.521 | 0.785 | 0.467 | 0.709 | 0.601 | 0.765 | 0.791 | 0.775
ECKASCPGKIT [PRSS3_Y232_Y232C] | 0.461 | 0.336 | 0.335 | 0.404 | 0.44 | 0.453 | 0.536 | 0.401 | 0.351 | 0.402 | 0.468 | 0.577 | 0.359 | 0.791 | 0.556 | 0.442
ECKLRYSRKEG [PTPN11_Y263_L262R] | 0.527 | 0.457 | 0.533 | 0.484 | 0.53 | 0.376 | 0.606 | 0.52 | 0.503 | 0.378 | 0.523 | 0.452 | 0.423 | 0.746 | 0.679 | 0.453
EDKFMYFEFPQ [PTEN_Y240] | 1.7 | 0.826 | 0.67 | 9.1 | 7.33 | 0.421 | 1.27 | 1.32 | 1.11 | 2.05 | 1.68 | 0.952 | 2.53 | 0.745 | 0.681 | 0.543
EEEPVYEAEPE [HCLS1_Y360] | 1.49 | 0.664 | 0.712 | 0.646 | 0.84 | 0.655 | 1.42 | 0.765 | 0.73 | 1.38 | 0.72 | 1.14 | 0.851 | 0.831 | 0.716 | 0.542
EEKKKYYDTKI [CASP5_Y103] | 0.818 | 0.442 | 0.421 | 0.468 | 0.515 | 0.465 | 0.853 | 0.479 | 0.4 | 0.875 | 0.366 | 0.618 | 0.34 | 0.698 | 0.669 | 0.432
EEQKKYFNAVK [SCN5A_Y1494_M1498V_YF] | 0.832 | 0.482 | 0.566 | 0.358 | 0.567 | 0.414 | 1.05 | 0.506 | 0.483 | 0.727 | 0.482 | 0.742 | 0.383 | 0.868 | 0.604 | 0.574

Sequence | phosphorylation enrichment [1] | phosphorylation enrichment [2] | phosphorylation enrichment [3] | phosphorylation enrichment [4] | phosphorylation enrichment [5] | phosphorylation enrichment [6] | phosphorylation enrichment [7] | phosphorylation enrichment [8] | phosphorylation enrichment [9] | phosphorylation enrichment [10] | phosphorylation enrichment [11] | phosphorylation enrichment [12] | phosphorylation enrichment [13] | SH2 binding enrichment [14] | SH2 binding enrichment [15] | SH2 binding enrichment [16]
EFDRLYEEFTR [PIK3R1_Y467_YF] | 1.59 | 3.46 | 2.77 | 0.65 | 0.807 | 6.18 | 1.15 | 7.47 | 6.11 | 1.01 | 3.04 | 0.841 | 5.36 | 0.92 | 1.05 | 0.516
EFENSCIFDIN [GAB1_Y83_Y83C] | 0.958 | 0.403 | 0.431 | 0.45 | 0.632 | 0.42 | 0.963 | 0.483 | 0.406 | 0.824 | 0.895 | 0.673 | 0.397 | 1.18 | 0.732 | 0.786
EFGRRYGFSCQ [CCDC93_Y209_R213C_YF] | 0.914 | 0.539 | 0.504 | 0.629 | 0.62 | 0.534 | 0.989 | 0.547 | 0.418 | 0.911 | 0.491 | 0.733 | 0.468 | 0.856 | 0.635 | 0.495
EFISEHCGEII [EZH2_Y641_Y641H] | 1.35 | 0.733 | 0.644 | 0.544 | 0.722 | 0.652 | 1.31 | 0.639 | 0.602 | 1.17 | 0.658 | 0.806 | 0.56 | 0.831 | 0.784 | 0.633
EGDGVYTLNDE [HP_Y125_N129D] | 1.18 | 0.643 | 0.727 | 0.453 | 0.838 | 0.555 | 1.23 | 4.51 | 1.81 | 1.21 | 0.482 | 0.8 | 3.79 | 0.872 | 0.445 | 0.532
EGLKVYINGTL [ADGRD1_Y183_V184I] | 1.18 | 0.663 | 0.614 | 0.554 | 0.853 | 0.555 | 1.49 | 0.401 | 0.541 | 1.38 | 0.337 | 0.8 | 0.4 | 1.32 | 0.659 | 0.381
EGNERYEGYCV [GRIA3_Y451] | 0.982 | 0.542 | 0.562 | 0.575 | 0.742 | 0.579 | 1.14 | 0.544 | 0.574 | 0.944 | 0.418 | 0.761 | 0.579 | 0.881 | 0.693 | 2.3
EIKLAYRRRPP [GRIN2B_Y1109_E1106K] | 0.735 | 0.568 | 0.617 | 0.537 | 0.584 | 0.98 | 0.532 | 0.526 | 0.789 | 0.861 | 0.652 | 0.756 | 0.885 | 0.708 | 0.525 | 0.362
EILLSDLRTGY [TGM1_Y365_Y365D] | 0.673 | 0.367 | 0.455 | 0.511 | 0.616 | 0.362 | 0.845 | 0.416 | 0.553 | 0.744 | 0.422 | 0.421 | 0.401 | 0.74 | 0.629 | 0.447
EILTQYEAMAS [GFAP_Y242_R239L] | 1.02 | 0.547 | 0.452 | 0.485 | 0.608 | 0.514 | 0.976 | 0.529 | 0.526 | 0.846 | 0.471 | 0.713 | 0.503 | 0.853 | 0.638 | 2.84
EIPTQYEAMAS [GFAP_Y242_R239P] | 0.982 | 0.853 | 0.577 | 0.536 | 0.694 | 0.662 | 1.04 | 0.487 | 0.596 | 0.802 | 0.445 | 0.615 | 0.405 | 0.674 | 0.629 | 2.5
EIRTQYEVMAS [GFAP_Y242_A244V] | 0.74 | 0.445 | 0.476 | 0.493 | 0.635 | 0.49 | 0.839 | 0.484 | 0.49 | 1.07 | 0.378 | 0.615 | 0.437 | 0.767 | 0.89 | 6.97
EKDSNYCLCRT [ASIC2_Y357] | 0.772 | 0.551 | 0.634 | 0.556 | 0.605 | 0.442 | 0.883 | 0.569 | 0.513 | 0.763 | 0.601 | 0.573 | 0.506 | 0.976 | 0.789 | 0.778
EKLIQYCQSKS [AKR1B1_Y199_G204S] | 0.679 | 0.584 | 0.588 | 0.459 | 0.642 | 0.476 | 0.807 | 0.475 | 0.46 | 0.562 | 0.395 | 0.638 | 0.448 | 0.964 | 0.755 | 0.609
EKQVAYCPSGK [ROS1_Y2323] | 0.634 | 0.413 | 0.445 | 0.49 | 0.505 | 0.32 | 0.795 | 0.383 | 0.442 | 0.638 | 0.412 | 0.567 | 0.358 | 0.879 | 0.844 | 0.464
ELSDGYWVVSN [TPP1_Y459_A454E] | 1.39 | 0.559 | 0.664 | 1.3 | 1.21 | 0.528 | 1.34 | 0.507 | 0.647 | 1.63 | 0.396 | 0.778 | 0.588 | 0.636 | 0.616 | 7.16
